{"source": "patent US20170326249A1", "about": "(Bristol-Myers Squibb, published 2017)", "binders": {"B1": {"name": "Antibody C (antibody, human IgG1, kappa, V domains shown)", "VH": "EVQLVQSGAEVKKPGESLKISCKGSGYSFTRYWIAWVRQMPGKGLEWMGIIFPGDSHTGYSPSFQGQVTISADRSISTAYLQWSSLKASDTAMYYCARTREGYFDYWGQGTLVTVSS", "VL": "not shown", "notes": "Variable-region variant of GPC3.1, IgG1/kappa; also called variant antibody C"}, "B2": {"name": "Antibody A (antibody, human IgG1, kappa, V domains shown)", "VH": "B1 VH with R31S, S77R, E101Q", "VL": "not shown", "notes": "Variable-region variant of GPC3.1, IgG1/kappa; also called variant antibody A"}, "B3": {"name": "Antibody B (antibody, human IgG1, kappa, V domains shown)", "VH": "B1 VH with Q65R, R74K", "VL": "not shown", "notes": "Variable-region variant of GPC3.1, IgG1/kappa; also called variant antibody B"}}, "note": "Positions count from the first letter of the chain named.", "data": [{"target": "T1, Glypican-3 (UniProt P51654 25-559, limits assumed)", "T1 construct": "also called GPC3", "experiment": "Biacore (SPR)", "units": {"Kd": "nM", "koff": "s⁻¹", "kon": "M⁻¹ s⁻¹"}, "values": [{"binder": "B1", "Kd": 0.9, "koff": 0.0016, "kon": "1.7e+06"}, {"binder": "B2", "Kd": 2.7, "koff": 0.0029, "kon": "1.1e+06"}, {"binder": "B3", "Kd": 2.2, "koff": 0.0036, "kon": "1.7e+06"}]}]}
